Test results reported in the supplement of paper PMC12042874.
± gives the uncertainty stated by the source.

Assay: amyloid nucleation score (Sup35N fusion, yeast selection) (log enrichment); library NNK2; higher = more nucleation; inactive = no reads after selection
Procedure, shortened: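 On medium lacking adenine and uracil, psi-negative yeast expressing peptides of 20 random codons fused to Sup35N were grown 7 days at 30°C after a 24-hour induction with 100 μM copper sulfate. Illumina sequencing of input and output plasmid inserts gave the reads, and sequences under 100 input reads were excluded. The nucleation score is the DiMSum log enrichment of output over input reads, centred on the mode score of non-aggregating sequences.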

SLRFGYNFKFLAMIKFPHIR
amyloid nucleation score: -0.644 ± 0.78

VFEAIMVYSFRRYFPPYGAF
amyloid nucleation score: 2.62 ± 0.098

YTGFWFIFTKGHTE
amyloid nucleation score: inactive

KLGTLLSFPTVINVANMIQI
amyloid nucleation score: 3.8 ± 0.081

KGNAVVSWDRS
amyloid nucleation score: 2.36 ± 0.1

KVGERISPELSGMFYGTLWY
amyloid nucleation score: -0.305 ± 0.74

NTIQCY
amyloid nucleation score: inactive

TWRLACRFLL
amyloid nucleation score: -0.12 ± 0.56

CQISGCYWV
amyloid nucleation score: 5.28 ± 0.074

TRDILGRGVDQFFIVSYRFN
amyloid nucleation score: -1.11 ± 0.45

LSGFKYWLRWL
amyloid nucleation score: inactive

DTVISCLGVG
amyloid nucleation score: -0.087 ± 1

PSSVKWTRSPGMRTTNGEVC
amyloid nucleation score: 1.36 ± 0.23

VGVLNSIKPYLCVSAKRKCV
amyloid nucleation score: 0.09 ± 0.74

LNAWQKEINDALSPLSYPDS
amyloid nucleation score: 0.274 ± 1.1

CHHGRYIQRVGYRLVPSAFQ
amyloid nucleation score: 0.098 ± 1

YSNANGRTRVWGPRERKKDQ
amyloid nucleation score: -0.004 ± 0.65

SILLRKRQELSNFTMW
amyloid nucleation score: -0.67 ± 0.76

WLTEVY
amyloid nucleation score: -0.587 ± 0.79

WCCPPHGRQP
amyloid nucleation score: 0.876 ± 0.43

YGSFWTFRFLGT
amyloid nucleation score: 4.12 ± 0.073

GGFRWSIQEHWYCTNAYSTD
amyloid nucleation score: 0.734 ± 0.81

NLLLLTVRKLNAVNMSTPPY
amyloid nucleation score: 2.05 ± 0.21

VKWTVNEVYGCYYCTGSVYA
amyloid nucleation score: 6.154 ± 0.042

NKMTF
amyloid nucleation score: 0.502 ± 0.44

TLATTGTHCVYYKNSWCKFR
amyloid nucleation score: -0.498 ± 0.63

HFWVLFMLEETQSKFYLQST
amyloid nucleation score: -0.923 ± 0.64

SVVVNPCLLA
amyloid nucleation score: -0.623 ± 1

TSLSVVSGFLAFSGSPHSGT
amyloid nucleation score: 4.39 ± 0.05

YHLSELVMRREWSDWYNVCG
amyloid nucleation score: 0.126 ± 0.43

RCLLKLDQV
amyloid nucleation score: -0.509 ± 0.4

IMDLAKVCEGVLSSGRVALI
amyloid nucleation score: 0.096 ± 0.29

LLRTHTSYRL
amyloid nucleation score: -0.836 ± 0.55

IRMGRANRWEVLARWTSVVA
amyloid nucleation score: 9.548 ± 0.079

SMEAFYRGFFKTPWSY
amyloid nucleation score: -0.2 ± 0.29

SFYDARYFQCDVFAVVRIRR
amyloid nucleation score: 0.853 ± 0.47

SWRIDNVGSRWSTMVCC
amyloid nucleation score: 6.09 ± 0.063

HIWTEVFIYVCSWRLYTTRV
amyloid nucleation score: -1.48 ± 0.64

CGRRMYKSIVQICMFRGNLN
amyloid nucleation score: 0.053 ± 0.79

KSCSEV
amyloid nucleation score: -0.047 ± 0.35

CTRRDFFGQTTAHVSVWCTG
amyloid nucleation score: 4.33 ± 0.081

YMFYPNCRSRC
amyloid nucleation score: 0.59 ± 0.15

SNYHSGRVKGGDVGVYIS
amyloid nucleation score: 3.57 ± 0.051

VRMWRGE
amyloid nucleation score: 0.083 ± 0.49

LTSMEARLQMKVRDGFQNGE
amyloid nucleation score: 0.437 ± 0.49

YAGYNISCP
amyloid nucleation score: inactive

INKVFNCYFLFSGHIVGLRS
amyloid nucleation score: -0.321 ± 0.79

TSFGCWSQAYKMMRFDLCSV
amyloid nucleation score: -0.145 ± 0.21

SEGIADVLSVSCWCYPCRPY
amyloid nucleation score: -1.21 ± 1.1

ILTFRVYPIPFDFYFGGLEL
amyloid nucleation score: 0.034 ± 1.1

AMSSA
amyloid nucleation score: 0.906 ± 0.52

AIWYFFIRNYYPSLLQKRSL
amyloid nucleation score: 1.89 ± 0.12

VGDWVQQVVFTRRSTSSRRV
amyloid nucleation score: inactive

ARMRKFTCRDWFRDPMGQPA
amyloid nucleation score: 0.854 ± 0.25

MIGKRGVFS
amyloid nucleation score: inactive

KDFVG
amyloid nucleation score: 2.62 ± 0.11

FSEYWVLSELVMVNKGVIWM
amyloid nucleation score: -0.865 ± 0.36

VEMRLGRDEIFNRHQKGIYA
amyloid nucleation score: 2.02 ± 0.36

YLLLLIMDLFKGRACHPRHA
amyloid nucleation score: inactive

PEQAVFTNNKYIYEVWLTTK
amyloid nucleation score: inactive

LFMKRER
amyloid nucleation score: -0.179 ± 0.76

CIFPPYVWYGIVMVYASMYG
amyloid nucleation score: 6.602 ± 0.039

LASSKEACVHTVMAIVSVGA
amyloid nucleation score: 2.08 ± 0.12

EHIASLVMNAANSTNPVGQK
amyloid nucleation score: -0.339 ± 0.76

RLWYSSSVLLV
amyloid nucleation score: 0.709 ± 0.36

VWMHMSGSIIKSWFLVRCFS
amyloid nucleation score: -0.506 ± 0.38

SLVLVDFAYSWMSGSAFWFF
amyloid nucleation score: -1.09 ± 1.1

PTMFNFKIYQIVRVGLPIHL
amyloid nucleation score: -1.53 ± 0.76

SCRRWHLFLGWCIDVVESIY
amyloid nucleation score: 1.56 ± 0.13

YRAGLGALEGSVLHAGKW
amyloid nucleation score: inactive

IDSDKEAFRTFLWTLDMYRL
amyloid nucleation score: -0.536 ± 1

TRFILYLGCDE
amyloid nucleation score: -1.25 ± 0.54

KFRCASWLCRSTKAWRRCGA
amyloid nucleation score: 4.75 ± 0.049

LWEVLWVFFDLNNVRLTMCN
amyloid nucleation score: -0.93 ± 0.78

YWEDNWAPNIQDLWQRRRCG
amyloid nucleation score: 0.743 ± 0.81

RFDRTRCETKSRLVRIR
amyloid nucleation score: 0.084 ± 0.41

SVVYSFTRMPVGIFLMISEL
amyloid nucleation score: -0.552 ± 0.35

NDRILPYSNLWHWERLV
amyloid nucleation score: -0.567 ± 1.1

IYPLWLMKSGIRLLCGKMCL
amyloid nucleation score: 0.607 ± 0.34

DKANTRGGLRCYKMHQFAFV
amyloid nucleation score: 1.15 ± 0.21

VNWLCRSWRSNRSLEG
amyloid nucleation score: 4.33 ± 0.087

GSNCIEVFRGWVKFGMDCFW
amyloid nucleation score: inactive

DFTRYYFYIPHRRVHTVH
amyloid nucleation score: -0.763 ± 0.4

CMGFSSLFFQGWVVIDCLW
amyloid nucleation score: -1.1 ± 0.76

MESINSVSSSNIVHRFRRGV
amyloid nucleation score: 5.58 ± 0.077

VYCVDIFCTESLVCPTQTWG
amyloid nucleation score: 6.055 ± 0.06
